Source: patent US20130217027A1
Blank lines part the entries; values can stand above or below the substance they belong to.

Experiments:
[1] = molecular target: IS (2): peptide ARTKQTAR without the methylation modification conjugated to a 125 bp DNA strand (Control-IS); assay: ChIP of spiked conjugate, qPCR primer set H3_qPCR, well A1
[2] = molecular target: IS (1): peptide ARTK(me3)QTAR conjugated to a 125 bp DNA strand (H3K4me3-IS); assay: ChIP qPCR primer set H3K4me3_qPCR; ratio of H3K4me3-antibody ChIP over H3K36me3-antibody ChIP
[3] = molecular target: IS (1): peptide ARTK(me3)QTAR conjugated to a 125 bp DNA strand (H3K4me3-IS); assay: ChIP qPCR primer set H3K4me3_qPCR_Vshort; ratio of H3K4me3-antibody ChIP over H3K36me3-antibody ChIP
[4] = molecular target: IS (1): peptide ARTK(me3)QTAR conjugated to a 125 bp DNA strand (H3K4me3-IS); assay: ChIP qPCR primer set H3K4me3_qPCR; enrichment of H3K4me3-IS normalised to Control-IS (H3_qPCR)
[5] = molecular target: IS (1): peptide ARTK(me3)QTAR conjugated to a 125 bp DNA strand (H3K4me3-IS); assay: ChIP of spiked conjugate, qPCR primer set H3K4me3_qPCR, well C2
[6] = molecular target: IS (1): peptide ARTK(me3)QTAR conjugated to a 125 bp DNA strand (H3K4me3-IS); assay: ChIP qPCR primer set H3K4me3_qPCR_long; ratio of H3K4me3-antibody ChIP over H3K36me3-antibody ChIP
[7] = molecular target: IS (1): peptide ARTK(me3)QTAR conjugated to a 125 bp DNA strand (H3K4me3-IS); assay: ChIP qPCR primer set H3K4me3_qPCR_long; enrichment of H3K4me3-IS normalised to Control-IS (H3_qPCR_long)
[8] = molecular target: IS (1): peptide ARTK(me3)QTAR conjugated to a 125 bp DNA strand (H3K4me3-IS); assay: ChIP of spiked conjugate, qPCR primer set H3K4me3_qPCR, well C1
[9] = molecular target: IS (1): peptide ARTK(me3)QTAR conjugated to a 125 bp DNA strand (H3K4me3-IS); assay: ChIP of spiked conjugate, qPCR primer set H3K4me3_qPCR_short, well K2
[10] = molecular target: IS (1): peptide ARTK(me3)QTAR conjugated to a 125 bp DNA strand (H3K4me3-IS); assay: ChIP of spiked conjugate, qPCR primer set H3K4me3_qPCR_long, well G2
[11] = molecular target: IS (1): peptide ARTK(me3)QTAR conjugated to a 125 bp DNA strand (H3K4me3-IS); assay: ChIP qPCR primer set H3K4me3_qPCR_short; ratio of H3K4me3-antibody ChIP over H3K36me3-antibody ChIP
[12] = molecular target: IS (1): peptide ARTK(me3)QTAR conjugated to a 125 bp DNA strand (H3K4me3-IS); assay: ChIP of spiked conjugate, qPCR primer set H3K4me3_qPCR_Vshort, well M2
[13] = molecular target: IS (1): peptide ARTK(me3)QTAR conjugated to a 125 bp DNA strand (H3K4me3-IS); assay: ChIP of spiked conjugate, qPCR primer set H3K4me3_qPCR_long, well G1
[14] = molecular target: IS (2): peptide ARTKQTAR without the methylation modification conjugated to a 125 bp DNA strand (Control-IS); assay: ChIP of spiked conjugate, qPCR primer set H3_qPCR_long, well E1
[15] = molecular target: IS (2): peptide ARTKQTAR without the methylation modification conjugated to a 125 bp DNA strand (Control-IS); assay: ChIP qPCR primer set H3_qPCR_short; ratio of H3K4me3-antibody ChIP over H3K36me3-antibody ChIP
[16] = molecular target: IS (1): peptide ARTK(me3)QTAR conjugated to a 125 bp DNA strand (H3K4me3-IS); assay: ChIP qPCR primer set H3K4me3_qPCR_Vshort; enrichment of H3K4me3-IS normalised to Control-IS
[17] = molecular target: IS (2): peptide ARTKQTAR without the methylation modification conjugated to a 125 bp DNA strand (Control-IS); assay: ChIP of spiked conjugate, qPCR primer set H3_qPCR_short, well I1
[18] = molecular target: IS (1): peptide ARTK(me3)QTAR conjugated to a 125 bp DNA strand (H3K4me3-IS); assay: ChIP qPCR primer set H3K4me3_qPCR_short; enrichment of H3K4me3-IS normalised to Control-IS (H3_qPCR_short)
[19] = molecular target: IS (2): peptide ARTKQTAR without the methylation modification conjugated to a 125 bp DNA strand (Control-IS); assay: ChIP of spiked conjugate, qPCR primer set H3_qPCR_long, well E2
[20] = molecular target: IS (1): peptide ARTK(me3)QTAR conjugated to a 125 bp DNA strand (H3K4me3-IS); assay: ChIP with 100 fg of internal standard spiked after sonication, qPCR
[21] = molecular target: IS (2): peptide ARTKQTAR without the methylation modification conjugated to a 125 bp DNA strand (Control-IS); assay: ChIP qPCR primer set H3_qPCR_long; ratio of H3K4me3-antibody ChIP over H3K36me3-antibody ChIP
[22] = molecular target: IS (2): peptide ARTKQTAR without the methylation modification conjugated to a 125 bp DNA strand (Control-IS); assay: ChIP qPCR primer set H3_qPCR; ratio of H3K4me3-antibody ChIP over H3K36me3-antibody ChIP
[23] = molecular target: IS (2): peptide ARTKQTAR without the methylation modification conjugated to a 125 bp DNA strand (Control-IS); assay: ChIP of spiked conjugate, qPCR primer set H3_qPCR_short, well I2
[24] = molecular target: IS (1): peptide ARTK(me3)QTAR conjugated to a 125 bp DNA strand (H3K4me3-IS); assay: ChIP of spiked conjugate, qPCR primer set H3K4me3_qPCR_Vshort, well M1
[25] = molecular target: IS (1): peptide ARTK(me3)QTAR conjugated to a 125 bp DNA strand (H3K4me3-IS); assay: ChIP of spiked conjugate, qPCR primer set H3K4me3_qPCR_short, well K1
[26] = molecular target: IS (1): peptide ARTK(me3)QTAR conjugated to a 125 bp DNA strand (H3K4me3-IS); assay: ChIP with 10 fg of internal standard spiked after sonication, qPCR
[27] = molecular target: IS (2): peptide ARTKQTAR without the methylation modification conjugated to a 125 bp DNA strand (Control-IS); assay: ChIP of spiked conjugate, qPCR primer set H3_qPCR, well A2
[28] = molecular target: IS (1): peptide ARTK(me3)QTAR conjugated to a 125 bp DNA strand (H3K4me3-IS); assay: ChIP of spiked conjugate, qPCR primer set H3K4me3_qPCR_long, well G3
[29] = molecular target: IS (2): peptide ARTKQTAR without the methylation modification conjugated to a 125 bp DNA strand (Control-IS); assay: ChIP of spiked conjugate, qPCR primer set H3_qPCR, well A3
[30] = molecular target: IS (1): peptide ARTK(me3)QTAR conjugated to a 125 bp DNA strand (H3K4me3-IS); assay: ChIP of spiked conjugate, qPCR primer set H3K4me3_qPCR_short, well K3
[31] = molecular target: IS (1): peptide ARTK(me3)QTAR conjugated to a 125 bp DNA strand (H3K4me3-IS); assay: ChIP of spiked conjugate, qPCR primer set H3K4me3_qPCR_Vshort, well M3
[32] = molecular target: IS (1): peptide ARTK(me3)QTAR conjugated to a 125 bp DNA strand (H3K4me3-IS); assay: ChIP of spiked conjugate, qPCR primer set H3K4me3_qPCR, well C3
[33] = molecular target: IS (2): peptide ARTKQTAR without the methylation modification conjugated to a 125 bp DNA strand (Control-IS); assay: ChIP of spiked conjugate, qPCR primer set H3_qPCR_long, well E3
[34] = molecular target: IS (2): peptide ARTKQTAR without the methylation modification conjugated to a 125 bp DNA strand (Control-IS); assay: ChIP of spiked conjugate, qPCR primer set H3_qPCR_short, well I3
[35] = molecular target: IS (1): peptide ARTK(me3)QTAR conjugated to a 125 bp DNA strand (H3K4me3-IS); assay: ChIP of spiked conjugate, qPCR primer set H3K4me3_qPCR_Vshort, well M4
[36] = molecular target: IS (2): peptide ARTKQTAR without the methylation modification conjugated to a 125 bp DNA strand (Control-IS); assay: ChIP of spiked conjugate, qPCR primer set H3_qPCR_short, well I4
[37] = molecular target: IS (1): peptide ARTK(me3)QTAR conjugated to a 125 bp DNA strand (H3K4me3-IS); assay: ChIP of spiked conjugate, qPCR primer set H3K4me3_qPCR_short, well K4
[38] = molecular target: IS (2): peptide ARTKQTAR without the methylation modification conjugated to a 125 bp DNA strand (Control-IS); assay: ChIP of spiked conjugate, qPCR primer set H3_qPCR, well A4
[39] = molecular target: IS (1): peptide ARTK(me3)QTAR conjugated to a 125 bp DNA strand (H3K4me3-IS); assay: ChIP of spiked conjugate, qPCR primer set H3K4me3_qPCR_long, well G4
[40] = molecular target: IS (2): peptide ARTKQTAR without the methylation modification conjugated to a 125 bp DNA strand (Control-IS); assay: ChIP of spiked conjugate, qPCR primer set H3_qPCR_long, well E4
[41] = molecular target: IS (1): peptide ARTK(me3)QTAR conjugated to a 125 bp DNA strand (H3K4me3-IS); assay: ChIP of spiked conjugate, qPCR primer set H3K4me3_qPCR, well C4

Cp (qPCR) [1]: 20.4
Cp (qPCR) [14]: 20.4
K4/K36 [15]: 0.871 fold
Cp (qPCR) [17]: 19.5
Cp (qPCR) [19]: 20.5
K4/K36 [21]: 0.862 fold
K4/K36 [22]: 1.16 fold
Cp (qPCR) [23]: 19.9
Cp (qPCR) [27]: 20.4
Substance: antibody specific for H3K4me3 (Millipore, catalogue Number: 07-473, rabbit, polyclonal)
K4/K36 [2]: 30.9 fold
K4/K36 [3]: 75.6 fold
(K4/K36)^K4-ChIP/(K4/K36)^K36-ChIP [4]: 26.6 fold
Cp (qPCR) [5]: 15.2
K4/K36 [6]: 37.8 fold
(K4/K36)^K4-ChIP/(K4/K36)^K36-ChIP [7]: 43.9 fold
Cp (qPCR) [8]: 14.7
Cp (qPCR) [9]: 14.9
Cp (qPCR) [10]: 15.6
K4/K36 [11]: 45.9 fold
Cp (qPCR) [12]: 14.4
Cp (qPCR) [13]: 15.2
(K4/K36)^K4-ChIP/(K4/K36)^K36-ChIP [16]: 86.8 fold
(K4/K36)^K4-ChIP/(K4/K36)^K36-ChIP [18]: 52.7 fold
qPCR cycle of enrichment [20]: 26 cycle
Cp (qPCR) [24]: 14
Cp (qPCR) [25]: 14.2
qPCR cycle of enrichment [26]: 30 cycle

Cp (qPCR) [29]: 20.3
Cp (qPCR) [33]: 20.6
Cp (qPCR) [34]: 19.1
Cp (qPCR) [36]: 19.9
Cp (qPCR) [38]: 21
Cp (qPCR) [40]: 19.9
Substance: non-relevant control antibody that should recognize H3K36me3 (Abcam, catalogue Number: ab9050, rabbit, polyclonal)
Cp (qPCR) [28]: 20.4
Cp (qPCR) [30]: 19.9
Cp (qPCR) [31]: 20.1
Cp (qPCR) [32]: 19.9
Cp (qPCR) [35]: 20.9
Cp (qPCR) [37]: 20.2
Cp (qPCR) [39]: 20.9
Cp (qPCR) [41]: 19.9
